The experiment concerns the target T1, Recombinant HpHbR N-terminal domain (Trypanosoma brucei haptoglobin-haemoglobin receptor) (Trypanosoma brucei brucei, biotin (only for the protein coated on streptavidin-coated plates; site not stated)).
T1 construct: also called HpHbR NTD; TbHpHbR NTD; source: recombinant, expressed as previously described [34]
The experiment is described as follows: ELISA; phage ELISA: 10 ug/ml TbHpHbR NTD coated onto Nunc Maxisorp plates or 5 ug/mL biotinylated protein on streptavidin-coated plates overnight at 4°C; blocked phage supernatants 1 hr at room temperature; bound phage detected with anti-M13 HRP antibody; BSA and streptavidin in parallel. To be noted: one partner purified. (An ELISA detects its analyte on a solid surface through an enzyme-linked reagent.)

Experimental findings from paper PMC6532856, “A single dose of antibody-drug conjugate cures a stage 1 model of African trypanosomiasis” (PLoS Neglected Tropical Diseases, 2019) are described below.

B1: Tb017 scFv (scFv, V domains shown)
VH: QVQLVQSGAEVKKPGSSVKVSCKASGGTFSSYAISWVRQAPGQGLEWMGGIIPIFGTANYAQKFQGRVTITADESTSTAYMELSSLRSEDTAVYYCARGWWYDLVFDYWGQGTLVTVSS
VL: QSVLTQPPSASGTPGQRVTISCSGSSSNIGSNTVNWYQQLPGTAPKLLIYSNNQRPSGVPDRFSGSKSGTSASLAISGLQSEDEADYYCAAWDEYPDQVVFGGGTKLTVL
notes: framework domains and CDR1-3 marked; source: phage produced from E. coli, phage-containing supernatant
B1: the binding result is given as “binds”.

B2: Tb086 scFv (scFv, V domains shown)
VH: QVQLVQSGAEVKKPGSSVKVSCKASGGTFSSYAISWVRQAPGQGLEWMGGIIPIFGTANYAQKFQGRVTITADESTSTAYMELSSLRSEDTAVYYCARGWYYHGGIDYWGQGTLVTVSS
VL: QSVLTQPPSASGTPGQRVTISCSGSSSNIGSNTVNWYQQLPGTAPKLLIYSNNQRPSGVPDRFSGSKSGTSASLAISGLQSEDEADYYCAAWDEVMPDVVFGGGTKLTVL
notes: as for B1
As for B2, the binding result is given as “binds”.

B3: Tb073 scFv (scFv, V domains shown)
VH: QVQLVQSGAEVKKPGSSVKVSCKASGGTFSSYAISWVRQAPGQGLEWMGGIIPIFGTANYAQKFQGRVTITADESTSTAYMELSSLRSEDTAVYYCARGWYDMGDFDMWGQGTLVTVSS
VL: QSVLTQPPSASGTPGQRVTISCSGSSSNIGSNTVNWYQQLPGTAPKLLIYSNNQRPSGVPDRFSGSKSGTSASLAISGLQSEDEADYYCAAWDWHHGHVVVFGGGTKLTVL
notes: as for B1
As for B3, the binding result is “binds”.

B4: Tb078 scFv (scFv, V domains shown)
VH: QVQLVQSGAEVKKPGSSVKVSCKASGGTFSSYAISWVRQAPGQGLEWMGGIIPIFGTANYAQKFQGRVTITADESTSTAYMELSSLRSEDTAVYYCARGWIYEFIIDAWGQGTLVTVSS
VL: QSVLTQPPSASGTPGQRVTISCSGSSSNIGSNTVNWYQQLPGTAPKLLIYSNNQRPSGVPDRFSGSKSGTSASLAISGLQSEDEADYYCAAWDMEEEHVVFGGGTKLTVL
notes: as for B1
Turning to B4, the binding result was “binds”.

B5: Tb085 scFv (scFv, V domains shown)
VH: QVQLVQSGAEVKKPGSSVKVSCKASGGTFSSYAISWVRQAPGQGLEWMGGIIPIFGTANYAQKFQGRVTITADESTSTAYMELSSLRSEDTAVYYCAREGWDYGWFDFWGQGTLVTVSS
VL: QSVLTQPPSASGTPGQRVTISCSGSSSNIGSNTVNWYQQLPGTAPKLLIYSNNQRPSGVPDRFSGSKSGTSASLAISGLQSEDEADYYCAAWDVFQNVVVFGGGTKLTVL
notes: as for B1
In the case of B5, the binding result is “binds”.

B6: Tb074 scFv (scFv, V domains shown)
VH: QVQLVQSGAEVKKPGSSVKVSCKASGGTFSSYAISWVRQAPGQGLEWMGGIIPIFGTANYAQKFQGRVTITADESTSTAYMELSSLRSEDTAVYYCARGWWHEPGFDYWGQGTLVTVSS
VL: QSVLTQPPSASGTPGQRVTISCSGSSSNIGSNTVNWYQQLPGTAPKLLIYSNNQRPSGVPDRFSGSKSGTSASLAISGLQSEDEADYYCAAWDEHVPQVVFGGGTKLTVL
notes: as for B1
For B6, the binding result is “binds”.
